According to a protein production outcome set (Wang et al. 2014):

Experiment: label from the status in PepcDB records

Row | Sequence | protein production
1 | MKPSQWTLRWVTLCGCGMLAASAAAVELPGTVQPSQLDERFKPRSEPQAKPEAPLVVPKQVAPQGSEQIRFKLREIRIEGNTRYDKAVLESYYQHMLGEQVSLAELVDLANRLTAKYRQDGFLLTQVVVPEQSIEGGKVRLQVIEGYLEHVQIKGTVDGPRVRVEELLAPLTEKRPLDADTLERGLLLVGDLPGVNVQSVLSPGQALGSSNLDVALQQQRYEGFVSLDNRGSHYTDPTTLAFGATEFSRLGFYEQIDVLGAISPFSDATRYIQLRGTLPLGGMFAGDTLQIMGSYSKVNPDIPDSVFPFDSVSKSTEGSISYNHPFIRSRSQNLSGGLALQWKDTETRLRDFASDASNPGRDHVRVFQQRLTYDWVDRWMGINLAEVRNNIGLDMWGATKKDDERRSREVADGRFVYLNGNIGRLQGLGGPWSVYGELQWQYSFDPLLPSERFGVGGSGIGRGFAPGNITGDRGFALKLEPRYGQAVGYSWLRSYQAYAFYDWGKTYNLDVDDDEQQKLGSIGAGVRFNLTDQLSFNPEIARQVIGEPADQRDGKRETRVLFNVVARF | failed
2 | MKKIAFFIFVILFSVGIYLIWHVLLEKALELKLATSANDLLLKLLAILGVFSMLVLFQGIISSYKKRQLKRILQKIDAMNGFEFEEYSKIFFTSKGFEVSITQKSGDYGADLIIEKDGIKWAVQVKRYSHKVSPKAIQEVVSSKAYYACEKACVITNSYFTQAAQKLAQANEVLLIDRDEWVRFLNEKR | failed
3 | MLILSTEKEPNFEYEEITRSFLSNMLAFTRGHFTGDISHFSPIVLAEMEKDPNWLEEAAGGMQGVIVQSLLEDENFSSVEQLKGELARLIRLYFALAKDNLTENQESLYVDLFDKFTFLLLCSDEFIMYLDSQPKF | not failed
4 | MELTELLDIGRQERSQQKPVQIRCCTAAGCLSANSQAVQQQLEQAVKAEGLEGEVQVSGVGCMRLCCQGPLVEVEGSGEEKTKQRLYEKVTPEDASAIIGAL | failed
5 | MDRDELVRYLDAYLRIQDFPQDPSLNGLQVEGKRTVRKVGAAVDAGEAIFRKALEEEVDFLIVHHGLFWGKPFPIVGHHKRRLETLFQGGINLYAAHLPLDAHEEVGNNFVLARELGLVDLTPWDVGVKGRFPQPTPLLQVADRLGQLTGMQPLVHQGGLDHVETVILVSGSGTGLLPKVDADLFVTGEPKHSVFHETFERGLNVIYAGHYDTETFGVKALAAHLEARFGLPWVFLDHPTGL | not failed
6 | MSVLQGFEEVNMTAPRGKLSMLVTKDVVRFNKATAIALGYPAYVKVLINDKTKQFAVKPCKQSDANAVKFSKPEGKQTASVNIKDVMVLDSVLKYFKLDEPQDGQVTFQSMQGTFYPEERVAMFSVADAKAGVMKKRGRKKSESEEA | failed
7 | MMTALATVTGVERHGKQYEIDLSCEQQTSCSSCSSQKSCGTGVVTKAIGNKSLSWHLRTEKNVQVGQVVEIGFPESSLIKS | failed
8 | MSEAIVTIVVVPRERFSCTQASLESIYEHTKIPFKLIYVDGNSPTKVRKYLQKQAQEKNFQLIRTDYYLSPNHARNIGLSHVDTKYLVFLDNDVIVSPGWLQALVNCAETTGATVVGPLMCEKEPIHERIHFAGGESHIVIDVKGRRHLREKMYKQGHQVSELRSQLQQTETELAEFHCTLIRREIFEQIGYLDEEMLNTKEHLDFCMNVIQAGGKVYFEPDSLVTYVPGPPLEWSDLHFYMLRWSDAWTLASLQRIRAKWNLSEDGYFQTKYKKLGVRRVATIIKPFVRQVSFGNENKPLKRFLKNLDRKLNRFLTDRYTEMLPQRKLELPIIKKEISSVKEFTQV | failed
9 | MKNVLYICIGALLAVLAFSSCNDGIDIRQDYDFSLSSWYLQKQIATGETVEIRFYLDREGDYEKAEYEIGYIQMEGKGEVSDCEGVKLVNREVKPLAEVPGLDTENPVKQVFTLFYRSTSARRSELKFFVRDNFGQEREMTVTFDTESGTTEE | failed
10 | MASYYSGFLGCEEPHFLESCSLCRKHLGLNSDIFMYRGDKAFCSNECREEQIESDEAKERKWKKSSRSLRKNSSETKESAAGNTVRTGTLVVA | failed
11 | MKLASGFLVLWLSLGGGLAQSDTSPDTEESYSDWGLRHLRGSFESVNSYFDSFLELLGGKNGVCQYRCRYGKAPMPRPGYKPQEPNGCGSYFLGLKVPESMDLGIPAMTKCCNQLDVCYDTCGANKYRCDAKFRWCLHSICSDLKRSLGFVSKVEAACDSLVDTVFNTVWTLGCRPFMNSQRAACICAEEEKEEL | failed
12 | TVSQLRSRITRFALAGRGMRETVTWSFISEKQALAFGGGQAQLKLVNPISADMSVMRPSLLPGLLVAAQRNADRGFPDFALFEVSNIYEDDTPDKQHRVAGGIRRGTEQFGGAGRFWNGNARAVDVFDAKADALAVLEACGLESGKVQIEVGAPDWYHPGRSGVIKLGSKIILGFFGVFHPATLEKLDISGPLCGFEIFLDRIP | failed
13 | MFKNNSYKVGVLALALSMALTGCVSDGDDGEQGLKGEQGAPGVVGVDGNDGKSLPRDLNVEVVGRFATGIYGKSAAEIVQFHKSSNAAFAINGASNQIEVISLTNLSTTAVGNPVADESLTSNAFIFPLNVSVTNSAGVEKDMSLGAVNSIAIKKDLLAIAVEGEIKQAHGAILFYSLNELGEGTFIKAVEVGALPDMVTFTPDGSKALVANEGEPNTDYTNDPEGSISVISVVDLMPANVAKTINLSTDIVFSDDNLVPEDFDTDAKRLAILSKAGVKFAGPAGNTVAKDLEPEYITTSSNSKMAYVSLQENNAIGIINLEELTIEVKALGYKDWGKYQLDFSNKDEVPEFKSIQGLYGMYQPDTLASYTWNDTTFIVSANEGDARDYDGFSEEVRVKDIIDTDELNQTLSSELQSQYDVSGGKNYLGRLKVTTALGDEDQNGEFEKLFAYGARSFSIWDKNANLVFDSGDDFGKISAAIMGDNFNAAHTKNKGDNRSDDKGGEPEAIDVGEIAGRTYAFIAQERAGDLFVYDITNPFKTAFVTHYNNRDFTVDYEMDDDLADPCDSSEGMDCTKVNSAGDLGPESIKFVSAIDSPTSKPLLIIGNEVSGTVTVYQITEQ | failed
14 | MAKQATTSRLLPESMDNSGEFWLHAFESLVADLPEPAFVVDADGDITHWNQAVENILGLPASEAVGMNAYDVFGTEGQDETLAQEVIRTGEPVREDEFRSAERPDGTMAHARAVAIPLMGPGGDAIGALELLIDFSDIVEQREALQSLQSQMATDVESAVGEIGDSAAAVTEQSDDIKQMAGEQSENLDEVQSEVSGFSATVEEIASSAEEVSSQSGEARELAEESVETAEETIERVEDATESAEQVASDSTELRGHIEEIDEFVEVINDIADQTNMLALNANIEAARSNSDSDGFAVVADEIKELADESKQHADEVERIVGEVREMADSTAENVEETTDAIQQALTDIETVLDNQQAIVDATSETEQGIGEVAAATDDQAASAEEIASMIDEIAQRAAEVSESIDELADANETQHRLAQDLEENVERVERRLAEIME | failed
15 | MRSLWVFYRTAPDTIVFFDDSPTARFSTVVAFYNHRTGGPMSFAQRDPIGELSLLTHIFIKYREPYVTDGQCRVIVQSKRPIMSSIEQYSQKPFYAHKGTDESSQDTETTEDIVVKEGKHFWIEFDPPEEPFTDTSRRVLRLVRNVEQHRQPGYCTFSKSLFVERNGNDIFKPYRLYPTHNFEDKYFSSAEVKESASLYDLSSLKKNEIRPTLERYEEALKAEVLTPLRNALIPCMVEVYRREIGFESEPDKSLRNASYSSVLSWGSTLRFTLRLWDRIVSGQPLAQVKSEDWFEGTFEKVPSAVSQGARSAIRYYVSDKKLSRDYVLAQALPVYFKWAACREAIQSKLHEQKTDFFAVDTELDKTHVLSGDNVPAKIKKLLEEAAARRKDALSENTIQAYQHAIDHFKSFCERHGPKALPASPETLIAYFEHLAQNGYAESTIRKRRSAIRFLHERSMNESPTTSESVRRYFDDLRKTIPESRGHGQKDPILFHHLHQMSFDEEELSDLRDRAILYIGVATGLRDSGLIGLEMRDIFEKEGGVVYRIRDPKGEGDPGPERVSVPHEVPALTPSPNEALTAWIEAAGIESGAVFRSVDQYGNVGGDDGLSSGSISKDIVKPWMKSIGEDPSEYSCHSLRAGFVTQAILDGITEPRIAAQSRHKSIEALREYERPTNDMKNHMLKEMG | failed
16 | MTHPATVYSLSTRLLHWSMAFCFIGAIVLAYFVIWVLGHDHPQRLPVLNLHWVLGLLVGLLLVPRIVSRLRGPRLPAVPGTPLEHRLAHYAHLSLYALMLVMPLTGYVGTRLPTDFGLFVVPSFKDTALFAWISQTLNLSWEAFEKPFDAVHRVVGLWLSTSVVLLHALAAGYHQWVRRDGTLERMLGRRQRR | failed
17 | MNNRELGRWQEHKHIGDYGWGIILCVIILCCIGMWAVYYACLHDLKVIDPVRTTMMQCLWYLVGALIATTMLHLSEKQLMQWAPIGYSIGMLLLILLLVLYSREYYVQTGAKSWFAIGTLTFQPVEVMKPLYILMMGRLIVQDQQWGPHNNFNADWRLTRRLVIYTFPIIVALKIINDFGTTLVFLTIFIGMLIVSPCRFSFLWRVLLVAGSIGVVLILLATSSTGQSLLSHIGFKLYQFDRINTWLNPSNGVSDQSYQLWQSMRAVGVGGLTGNGVTHNAVYVPVRESDMIFSVVGETTGFIGCSVLLIVYMYLFYLIFRSAFASRRRFYVYVSTGVAVMLAFHMFENIGMTIGLLPLTGIPLPFVSQGGSAIIGDFMGVGLVLATQYPNVRSIFSVPRIFH | failed
18 | MSLNIEEWEEYRYVEAGIKESITLIEDPGLKKMVEHVCHSGGKRIRPIILLLVSEICSGSYSRSLNAALAVEMMHSASLIHDDLLDQGLVRRNLPSAPEKFGPSGALLCGDYLIAKSIAFISPYGEKVIQDFGKAGMDMAEGEVLDLKLEDESFGENDYFKCIYKKTASLFAISASIGAYTGGAEEELAERFSHFGNALGTAYQIVDDILEFLEVVEGKESKFTSETLPHIYMKSTSKEEALKKSIDCVKLHVAAAKETLETFRECPARDKLFQITDYITVDMLENLEGHHHHHH | not failed
19 | MQSVEDKTFCLQTLSANPLAASATGLLPLAEVVIRGIDLPYAKLLVKSADRAIEKIPALKEQFKECQDSFLRIVMSLKSAASELKVSPDTANYDAMICFDETKRVKEVIGKNEDVTSKSLIEMTLRMEKLIFLALGATEVVGG | failed
20 | MTGRDLMLITGISPIILRFLFGGTAVVASRLVARSFGGRLGGVFAAFPAVYLAAVAGLSMEYEGSELLSVSEQLSRGALVGMSADICCALAASYLILKYGWKTGLSLSLLFWAVLAPVIYFTWF | failed
21 | MSDPVSYTRKDSIAVISMDDGKVNALGPAMQQALNAAIDNADRDDVGALVITGNGRVFSGGFDLKILTSGEVQPAIDMLRGGFELAYRLLSYPKPVVMACTGHAIAMGAFLLSCGDHRVAAHAYNIQANEVAIGMTIPYAALEIMKLRLTRSAYQQATGLAKTFFGETALAAGFIDEIALPEVVVSRAEEAAREFAGLNQHAHAATKLRSRADALTAIRAGIDGIAAEFGL | not failed
22 | MADQPESPSRPRGGLRRLLPWSGADTARTATTVHTVINGERGGQGLAAHQLVPAKAKSGAHDPAAATALLIRLFSHAAHPEALLLAFAEGITSLHGELGDMGVRLSAAYAAGDWPGYGRALRQLIDKYIRTIDIGDSLAEGRTEAEQLRDLLRHALGNALATLLQRSPELAEEAQTLASALRHWRPGHELLTLEQRLRELSHQIGLRAEDASEQQNLLLGLFDLLLENVGELLDDRSWLQGQISVVRQLISGPLDVSSIEQARGTLREVIYKQGLLKQGIAESKTAMREMMVSFVDRLDGMATSTGEYHDRVAGYSQAIGEARGIPDLNRLLQDLLQDTAGVQAQALAARDELLSARRQVEDCEQRIASLEQELKDVAGLVREDQLTGALNRRGFEELFQREAVRTQRSGQPLCVAMLDLDDFRRLNETHGHAGGDAALRHTVDVAKAVLRTTDAIARFGGEEFVLLLPDSTIFEASAAVIRLQRALSQRSLLHDDVRVFISFSAGVALRGTDETQDDVIRRADRAMYDAKSAGKNRVINAD | failed
23 | MLYHLVMLEPEGEGAMDRIMEAMAILDGLAPELPGLTEFRHGPNRDFEQKSERYPYGFLCTFTDKAALDAYAVHPTHQRAGGMLVASCRNGADGILVVDLEV | not failed
